Test [1] deals with T1, Tau1 peptide labelled with rhodamine (human, also: rhodamine isothiocyanate label, site not given here).
T1 construct: also called Tau1R; Tau-1R
T1 peptide: GLGDRKDQGGYTMHQD
In words: dot blot of mixed labelled peptides on nitrocellulose. The source says: (§1) FIGS. 2A-B. Confirmation of APP and Tau peptide binding by visualization and ELISA. A) Visualization of APP and Tau peptide binding labelled by fluorescein (F) or rhodamine (R). Single labelled peptides were loaded on nitrocellulose membrane [upper row (F) and middle row (R)]. Mixtures were loaded (lower row) from left to right: APP1F+Tau1R, APP1F+Tau2R, APP2F+Tau1R and APP2F+Tau2R. Last sample was a control of APP2F+APP1R. […] B) Peptide inhibition of Tau and APP protein binding. An ELISA plate was coated with Tau protein overnight (ON) at 4° C. PBS, single peptides or their combinations were incubated ON at 4° C. as well. Next day, the plate was washed and blocked with PBS+3% BSA for two hours at RT. The plate was washed again with PBS. Single peptides or their combinations were added to the coated plate for four hours at RT. The plate was washed and APP protein was added to all wells for ON incubation at 4° C. The plate was then washed and anti Aß was added, to test the ability of the different peptides to affect APP protein binding to the Tau coated plate. The plate was developed with anti-mouse HRP (materials and methods section). Samples were in triplicates. Significance labelled as p≤0.05*, p≤0.008**.
(§2) All four candidate peptides were labelled with fluorescein. APP1, Tau1 and Tau2 were also labelled with rhodamine for visualization of peptide binding.

In test [2] the target is T2, Tau2 peptide labelled with rhodamine (human, also: rhodamine isothiocyanate label, site not given here).
T2 construct: also called Tau2R; Tau-2R
T2 peptide: KPGGGQVEVKSEKLDFK
The description is as above.
Text: as §1, §2

Where no end group is shown, it is not given here.

In the case of ATVIVITLVMLKKKQYTS (also: fluorescein isothiocyanate label, site not given here, also called APP2F) [APP2 peptide labelled with fluorescein], the binding result in test [1] and in test [2] was “no binding” each time.

Regarding HFQKAKERLEAKHRERMSQVMRE (also: fluorescein isothiocyanate label, site not given here, also called APP1F; App1F) [APP1 peptide labelled with fluorescein], the binding result in test [1] and in test [2] was “binds” in each case.

The values are drawn from US20220306710A1 (YEDA RESEARCH AND DEVELOPMENT, published 2022).
